This is an account of results in PMC5852159, “Hydrogen peroxide positively regulates brassinosteroid signaling through oxidation of the BRASSINAZOLE-RESISTANT1 transcription factor” (Nature Communications, 2018).

The target in the test is T1, MBP-BZR1 (maltose-binding protein-BRASSINAZOLE-RESISTANT1 fusion) (Arabidopsis thaliana, UniProt Q8S307 1-336).
T1 construct: BRASSINAZOLE-RESISTANT1 (BZR1), Arabidopsis thaliana; full length cDNA without stop codon, recombined into pMAL2CGW (N-MBP); In part of the pull-downs 1 mM H2O2 stood in the buffer, which oxidises BZR1 (mainly at Cys-63); also called recombinant BZR1; source: E. coli, purified (amylose resin); not shown: MBP, N-terminal, kept
T1 sequence (looked up): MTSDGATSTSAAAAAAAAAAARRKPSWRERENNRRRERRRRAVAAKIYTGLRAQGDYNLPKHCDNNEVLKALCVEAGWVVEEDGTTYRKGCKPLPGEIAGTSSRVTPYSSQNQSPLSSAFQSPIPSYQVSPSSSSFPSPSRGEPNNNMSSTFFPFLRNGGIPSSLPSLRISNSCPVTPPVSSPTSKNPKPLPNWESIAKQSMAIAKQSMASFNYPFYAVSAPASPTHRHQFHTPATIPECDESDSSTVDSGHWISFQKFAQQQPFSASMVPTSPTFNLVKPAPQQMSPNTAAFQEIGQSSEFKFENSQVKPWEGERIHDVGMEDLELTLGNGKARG
Description: pull-down; glutathione beads with 1 µg GST fusion incubated with 1 µg MBP or MBP fusion; 20 mM Tris-HCl pH 7.5, 100 mM NaCl, 1 mM EDTA, with or without 1 mM H2O2, 4 °C, 1 h; washed with 300 mM NaCl, 0.1% Nonidet P-40; blots with anti-MBP and anti-GST. The following applies: both partners purified.

B1: GST-TRXh5 (enzyme, Arabidopsis thaliana, UniProt Q39241 1-118, looked up)
chain: MAGEGEVIACHTLEVWNEKVKDANESKKLIVIDFTASWCPPCRFIAPVFAEMAKKFTNVVFFKIDVDELQAVAQEFKVEAMPTFVFMKEGNIIDRVVGAAKDEINEKLMKHGGLVASA
notes: thioredoxin h5 (TRXh5), Arabidopsis thaliana; full length cDNA without stop codon, recombined into pDEST15 (N-GST); also called thioredoxin TRXh5; source: bacteria, purified (glutathione beads); not shown: GST, N-terminal, kept
B1: the binding result is reported as “binds”.
